Laboratory results: article PMC4066659

Target: assembled microtubules
Experiment: co-sedimentation

Substance | percent of wildtype Eg5 recovered in the microtubule pellet
His6-Eg5[Ser1033Asp] (baculovirus) (from UniProt P52732 1-1056) (natural protein) | 42%
His6-Eg5[Thr926Ala] (baculovirus) (from UniProt P52732 1-1056) (natural protein) | 28%
